Measurements published in patent US20180312587A1 (ADURO BIOTECH HOLDINGS EUROPE B V, published 2018).

Experiments:
[1] = target: T1, human SIRPγ (human, UniProt Q9P1W8 29-387); test: CELISA, CHO-K1 transfectants; extrapolated
T1 construct: on transfected CHO-K1 cells; also called hSIRPγ
Method: (§1) Binding of the humanized antibodies to hSIRPα was studied in CELISA format. Binding of the hSIRPα antibodies to human SIRPαV1, SIRPαV2, hSIRPβ1, and hSIRPγ was confirmed using CHO-K1 cells that had been transiently transfected with cDNA encoding the full length open reading frame of each of these respective targets subcloned into the pCI-neo vector. CHO-K1.hSIRPαV1, CHO-K1.hSIRPαV2, CHO-K1.hSIRPβ1, and CHO-K1.hSIRPγ cells were seeded in culture medium (DMEM-F12 (Gibco) supplemented with 5% New Born Calf Serum (BioWest) and Pen/Strep (Gibco)) in 96-well flat-bottom tissue culture plates and incubated at 37° C., 5% CO₂ and 95% humidity until cell layers were confluent. Subsequently, culture medium was removed and cells were incubated for 1 hour at 37° C., 5% CO₂ and 95% humidity with purified hSIRPα antibodies (10 μg/mL and dilutions thereof). Next, cells were washed with PBS-T and incubated for 1 hour at 37° C., 5% CO₂ and 95% humidity with goat-anti-human IgG-HRP conjugate (Jackson Immuno Research) or goat-anti-mouse IgG-HRP (Southern Biotech). Subsequently, cells were washed three times with PBS-T and anti-hSIRPα immunoreactivity was visualized with TMB Stabilized Chromogen (Invitrogen). Reactions were stopped with 0.5 M H₂SO₄ and absorbances were read at 450 and 610 nm. […] In Table 13 the EC50 values of the humanized hSIRPα antibodies are depicted.
(§2) Table 13: Binding of humanized and parental hSIRPα.50A antibodies to CHO-K1.hSIRPαV1, CHO-K1.hSIRPαV2, CHO-K1.hSIRPβ1, and CHO-K1.hSIRPγ cells.

[2] = target: T2, human SIRPβ1 (human, UniProt O00241 30-398); test: CELISA, CHO-K1 transfectants; nd = not detected
T2 construct: also called hSIRPβ1
Method: as §1, §2

[3] = target: T3, human SIRPα variant 1 (human, UniProt P78324 31-504); test: CELISA, CHO-K1 transfectants; average of two experiments
T3 construct: full length ORF on transfected CHO-K1 or HEK293 cells; entry includes the signal peptide; also called hSIRPαV1; SIRPαV1
Method: as §1, §2

[4] = target: T4, human SIRPα variant 2 (human, UniProt P78324 31-504); test: as above
T4 construct: full length ORF on transfected CHO-K1 cells; also called hSIRPαV2; SIRPαV2
Method: as §1, §2

T1 sequence (Q9P1W8 29-387 limits assumed): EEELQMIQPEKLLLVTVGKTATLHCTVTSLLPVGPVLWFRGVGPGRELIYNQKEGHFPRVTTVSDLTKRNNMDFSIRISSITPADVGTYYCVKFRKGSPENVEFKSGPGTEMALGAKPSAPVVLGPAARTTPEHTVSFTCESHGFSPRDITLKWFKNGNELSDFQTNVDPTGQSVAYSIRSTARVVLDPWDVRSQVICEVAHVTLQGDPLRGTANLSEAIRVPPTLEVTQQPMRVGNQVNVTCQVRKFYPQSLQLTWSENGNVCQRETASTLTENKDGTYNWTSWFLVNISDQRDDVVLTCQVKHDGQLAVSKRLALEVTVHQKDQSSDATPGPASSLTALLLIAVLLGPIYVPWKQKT
T2 sequence (O00241 30-398 limits assumed): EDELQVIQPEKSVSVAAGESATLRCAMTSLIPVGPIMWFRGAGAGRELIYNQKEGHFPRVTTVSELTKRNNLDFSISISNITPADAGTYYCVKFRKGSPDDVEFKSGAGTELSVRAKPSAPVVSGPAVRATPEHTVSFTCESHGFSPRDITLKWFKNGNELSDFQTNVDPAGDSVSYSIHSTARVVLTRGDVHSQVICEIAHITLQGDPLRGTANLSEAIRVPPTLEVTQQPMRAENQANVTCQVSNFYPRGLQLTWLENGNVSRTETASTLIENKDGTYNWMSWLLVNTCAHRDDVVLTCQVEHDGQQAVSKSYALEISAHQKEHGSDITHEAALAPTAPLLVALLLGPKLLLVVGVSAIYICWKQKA
T4 sequence (P78324 other isoform, or with tags, fused parts or gaps mutant limits assumed): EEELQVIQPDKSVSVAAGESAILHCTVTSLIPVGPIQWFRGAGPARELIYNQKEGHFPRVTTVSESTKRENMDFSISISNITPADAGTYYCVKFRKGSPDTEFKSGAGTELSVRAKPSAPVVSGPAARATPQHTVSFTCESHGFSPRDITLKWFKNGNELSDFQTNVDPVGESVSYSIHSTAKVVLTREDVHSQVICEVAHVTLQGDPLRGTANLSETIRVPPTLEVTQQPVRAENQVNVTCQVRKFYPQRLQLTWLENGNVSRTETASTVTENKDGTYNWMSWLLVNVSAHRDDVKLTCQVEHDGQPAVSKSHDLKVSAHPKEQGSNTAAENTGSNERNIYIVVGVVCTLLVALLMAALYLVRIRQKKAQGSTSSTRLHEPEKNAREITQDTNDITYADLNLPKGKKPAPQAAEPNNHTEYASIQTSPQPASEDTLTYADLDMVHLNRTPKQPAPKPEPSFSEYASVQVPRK
T3 sequence (P78324 31-504 limits assumed, change not shown): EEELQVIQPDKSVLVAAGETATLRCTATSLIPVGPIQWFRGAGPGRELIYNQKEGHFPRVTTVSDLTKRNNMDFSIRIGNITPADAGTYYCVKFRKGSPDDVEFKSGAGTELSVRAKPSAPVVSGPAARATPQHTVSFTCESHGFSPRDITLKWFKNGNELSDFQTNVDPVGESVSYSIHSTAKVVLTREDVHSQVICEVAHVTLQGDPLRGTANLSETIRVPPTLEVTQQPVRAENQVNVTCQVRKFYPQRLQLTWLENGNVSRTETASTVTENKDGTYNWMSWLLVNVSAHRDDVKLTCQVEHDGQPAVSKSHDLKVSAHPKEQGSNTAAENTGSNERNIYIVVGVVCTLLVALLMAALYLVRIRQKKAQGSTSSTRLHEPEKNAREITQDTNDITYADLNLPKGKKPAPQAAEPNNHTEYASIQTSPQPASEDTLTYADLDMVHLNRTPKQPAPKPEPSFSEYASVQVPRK

Binder | EC50 [1] | binding result [2] | EC50 [3] | EC50 [4]
hSIRPα.50A.H4L3 (antibody, human IgG4 S228P, kappa, V domains shown, human IgG4 S228P, kappa; also called hSIRPα.50H4L3) VH: EVQLQQSGAELVKPGASVKVSCKASGFTFTNYYIHWVRQRPGQGLEWMGWIYPGNVNTKYNEKFKAKATITADKSTSTAYMELSSLTSEDTAVYYCARPTIIATDFDVWGQGTTVTVSS VL: ELVMTQSPSSLSASVGDRVTITCKASQGVGTAVGWYQQKPGKAPKLLIYWASTRHTGVPDRFSGSGSGTDFTLAISSLQPEDIADYYCQQYSTYPFTFGGGTKVEIKR | 1.6 nM | no binding (tested: 10 µg/mL and dilutions thereof) | 0.933 nM | 0.898 nM
hSIRPα.50A.H3L1 (antibody, human IgG4 S228P, kappa, V domains shown, human IgG4 S228P, kappa; also called hSIRPα.50H3L1) VH: EVQLVQSGAEVVKPGASVMISCKASGFTFTNYYIHWVRQRPGQGLEWIGWIYPGNVNTKYNEKFKARVIMTADKSTSTVYMQLSSLTSEDTAVYYCARPTIIATDFDVWGQGTLVTVSS VL: DIVLTQSPSFLSASVGDRVTITCKASQGVGTAVGWYQQKPGKAPKLLIYWASTRHTGVPDRFSGSGSGTEFTLTISSLQPEDFAAYYCQQYSTYPFTFGGGTKLEIKR | 1.42 nM | no binding (tested: 10 µg/mL and dilutions thereof) | 1.1 nM | 1.06 nM
hSIRPα.50A.H3L3 (antibody, human IgG4 S228P, kappa, V domains shown, human IgG4 S228P, kappa; also called hSIRPα.50H3L3) VH: EVQLVQSGAEVVKPGASVMISCKASGFTFTNYYIHWVRQRPGQGLEWIGWIYPGNVNTKYNEKFKARVIMTADKSTSTVYMQLSSLTSEDTAVYYCARPTIIATDFDVWGQGTLVTVSS VL: ELVMTQSPSSLSASVGDRVTITCKASQGVGTAVGWYQQKPGKAPKLLIYWASTRHTGVPDRFSGSGSGTDFTLAISSLQPEDIADYYCQQYSTYPFTFGGGTKVEIKR | 2.47 nM | no binding (tested: 10 µg/mL and dilutions thereof) | 1.16 nM | 1.16 nM
hSIRPα.50A.H4L4 (antibody, human IgG4 S228P, kappa, V domains shown, human IgG4 S228P, kappa; also called hSIRPα.50H4L4) VH: EVQLQQSGAELVKPGASVKVSCKASGFTFTNYYIHWVRQRPGQGLEWMGWIYPGNVNTKYNEKFKAKATITADKSTSTAYMELSSLTSEDTAVYYCARPTIIATDFDVWGQGTTVTVSS VL: DIQMTQSPSSLSASVGDRVTITCKASQGVGTAVGWYQKKPGKVPKLLIYWASTRHTGVPDRFSGSGSGTDFTLTINGLQPEDVATYYCQQYSTYPFTFGGGTKLEIKR | 1.98 nM | no binding (tested: 10 µg/mL and dilutions thereof) | 1.2 nM | 1.24 nM
hSIRPα.50A.H4L1 (antibody, human IgG4 S228P, kappa, V domains shown, human IgG4 S228P, kappa; also called hSIRPα.50H4L1) VH: EVQLQQSGAELVKPGASVKVSCKASGFTFTNYYIHWVRQRPGQGLEWMGWIYPGNVNTKYNEKFKAKATITADKSTSTAYMELSSLTSEDTAVYYCARPTIIATDFDVWGQGTTVTVSS VL: DIVLTQSPSFLSASVGDRVTITCKASQGVGTAVGWYQQKPGKAPKLLIYWASTRHTGVPDRFSGSGSGTEFTLTISSLQPEDFAAYYCQQYSTYPFTFGGGTKLEIKR | 0.95 nM | no binding (tested: 10 µg/mL and dilutions thereof) | 0.683 nM | 0.681 nM
hSIRPα.50A.H4L5 (antibody, human IgG4 S228P, kappa, V domains shown, human IgG4 S228P, kappa; also called hSIRPα.50H4L5) VH: EVQLQQSGAELVKPGASVKVSCKASGFTFTNYYIHWVRQRPGQGLEWMGWIYPGNVNTKYNEKFKAKATITADKSTSTAYMELSSLTSEDTAVYYCARPTIIATDFDVWGQGTTVTVSS VL: DIVLTQSPSFLSASVGDRVTITCKASQGVGTAVGWYQQKPGKSPKLLIYWASTRHTGVPDRFSGSGSGTEFTLTISNLQPEDFAAYYCQQYSTYPFTFGGGTKLEIKR | 0.808 nM | no binding (tested: 10 µg/mL and dilutions thereof) | 0.701 nM | 0.661 nM
hSIRPα.50A.H5L1 (antibody, human IgG4 S228P, kappa, V domains shown, human IgG4 S228P, kappa; also called hSIRPα.50H5L1) VH: EVQLVQSGAEVVKPGASVKVSCKASGFTFTNYYIHWVRQAPEQGLEWIGWIYPGNVNTKYNEKFKARVTMTADKSTSTAYMELSSLRSDDMAVYYCARPTIIATDFDVWGQGTTVTVSS VL: DIVLTQSPSFLSASVGDRVTITCKASQGVGTAVGWYQQKPGKAPKLLIYWASTRHTGVPDRFSGSGSGTEFTLTISSLQPEDFAAYYCQQYSTYPFTFGGGTKLEIKR | 1.03 nM | no binding (tested: 10 µg/mL and dilutions thereof) | 0.731 nM | 0.709 nM
hSIRPα.50A.H5L5 (antibody, human IgG4 S228P, kappa, V domains shown, human IgG4 S228P, kappa; also called hSIRPα.50H5L5) VH: EVQLVQSGAEVVKPGASVKVSCKASGFTFTNYYIHWVRQAPEQGLEWIGWIYPGNVNTKYNEKFKARVTMTADKSTSTAYMELSSLRSDDMAVYYCARPTIIATDFDVWGQGTTVTVSS VL: DIVLTQSPSFLSASVGDRVTITCKASQGVGTAVGWYQQKPGKSPKLLIYWASTRHTGVPDRFSGSGSGTEFTLTISNLQPEDFAAYYCQQYSTYPFTFGGGTKLEIKR | 0.868 nM | no binding (tested: 10 µg/mL and dilutions thereof) | 0.681 nM | 0.611 nM
hSIRPα.50A.H5L2 (antibody, human IgG4 S228P, kappa, V domains shown, human IgG4 S228P, kappa; also called hSIRPα.50H5L2) VH: EVQLVQSGAEVVKPGASVKVSCKASGFTFTNYYIHWVRQAPEQGLEWIGWIYPGNVNTKYNEKFKARVTMTADKSTSTAYMELSSLRSDDMAVYYCARPTIIATDFDVWGQGTTVTVSS VL: DIVMTQSPSSLSASVGDRVTITCKASQGVGTAVGWYQQKPGKAPKLLIYWASTRHTGVPDRFSGSGSGTDFTLTISNLQPEDFADYYCQQYSTYPFTFGGGTKVEIKR | 0.822 nM | no binding (tested: 10 µg/mL and dilutions thereof) | 0.675 nM | 0.572 nM
hSIRPα.50A.H5L3 (antibody, human IgG4 S228P, kappa, V domains shown, human IgG4 S228P, kappa; also called hSIRPα.50H5L3) VH: EVQLVQSGAEVVKPGASVKVSCKASGFTFTNYYIHWVRQAPEQGLEWIGWIYPGNVNTKYNEKFKARVTMTADKSTSTAYMELSSLRSDDMAVYYCARPTIIATDFDVWGQGTTVTVSS VL: ELVMTQSPSSLSASVGDRVTITCKASQGVGTAVGWYQQKPGKAPKLLIYWASTRHTGVPDRFSGSGSGTDFTLAISSLQPEDIADYYCQQYSTYPFTFGGGTKVEIKR | 1.61 nM | no binding (tested: 10 µg/mL and dilutions thereof) | 1.03 nM | 0.796 nM
hSIRPα.50A.H3L4 (antibody, human IgG4 S228P, kappa, V domains shown, human IgG4 S228P, kappa; also called hSIRPα.50H3L4) VH: EVQLVQSGAEVVKPGASVMISCKASGFTFTNYYIHWVRQRPGQGLEWIGWIYPGNVNTKYNEKFKARVIMTADKSTSTVYMQLSSLTSEDTAVYYCARPTIIATDFDVWGQGTLVTVSS VL: DIQMTQSPSSLSASVGDRVTITCKASQGVGTAVGWYQKKPGKVPKLLIYWASTRHTGVPDRFSGSGSGTDFTLTINGLQPEDVATYYCQQYSTYPFTFGGGTKLEIKR | 5.17 nM | no binding (tested: 10 µg/mL and dilutions thereof) | 1.26 nM | 1.52 nM
hSIRPα.50A.H5L4 (antibody, human IgG4 S228P, kappa, V domains shown, human IgG4 S228P, kappa; also called hSIRPα.50H5L4) VH: EVQLVQSGAEVVKPGASVKVSCKASGFTFTNYYIHWVRQAPEQGLEWIGWIYPGNVNTKYNEKFKARVTMTADKSTSTAYMELSSLRSDDMAVYYCARPTIIATDFDVWGQGTTVTVSS VL: DIQMTQSPSSLSASVGDRVTITCKASQGVGTAVGWYQKKPGKVPKLLIYWASTRHTGVPDRFSGSGSGTDFTLTINGLQPEDVATYYCQQYSTYPFTFGGGTKLEIKR | 4.03 nM | no binding (tested: 10 µg/mL and dilutions thereof) | 1.17 nM | 1.11 nM
hSIRPα.50A.H3L5 (antibody, human IgG4 S228P, kappa, V domains shown, human IgG4 S228P, kappa; also called hSIRPα.50H3L5) VH: EVQLVQSGAEVVKPGASVMISCKASGFTFTNYYIHWVRQRPGQGLEWIGWIYPGNVNTKYNEKFKARVIMTADKSTSTVYMQLSSLTSEDTAVYYCARPTIIATDFDVWGQGTLVTVSS VL: DIVLTQSPSFLSASVGDRVTITCKASQGVGTAVGWYQQKPGKSPKLLIYWASTRHTGVPDRFSGSGSGTEFTLTISNLQPEDFAAYYCQQYSTYPFTFGGGTKLEIKR | 1.2 nM | no binding (tested: 10 µg/mL and dilutions thereof) | 0.878 nM | 0.868 nM
